In US12473545B2, “Regulation of RAN translation by PKR and eIF2α-P pathways” (University of Florida Research Foundation, Incorporated, priority 2017, dated 2025):
Entries after “also recorded” stand apart in the source; their conditions may differ.

Experiments:
RAN translation = experiment: Immunoblot of RAN protein levels in HEK293T cells transfected with repeat expansion constructs; format: cell-based; conditions: for RAN polyGP levels: HEK293T transiently transfected with G4C2 expansion construct, dose series; for polyLPAC RAN protein levels: CCTG (CCUG) expansion construct; for polyGP RAN protein levels: GGGGCC (G4C2) expansion construct
Excerpt: Diagrams of CAG, CCTG and GGGCC repeat expansion constructs used to test effects of protein kinase R (PKR) on repeat associated non-ATG (RAN) translation are shown in FIG. 1A. Briefly, constructs have a 6× stop-codon cassette (e.g., two stops in each reading frame, upstream of the repeat expansions and C-terminal epitope tags). A diagram of PKR vectors expressing wildtype (PKR-WT), the dominant negative K296R mutant form of PKR (PKR-K296R), or the C-terminal only domain (PKR-CT) are shown in FIG. 1B.
(§1) HEK293T cells were transfected with RAN protein-expressing and PKR-expressing constructs.
(§2) HEK293T cells were cultured in DMEM medium supplemented with 10% fetal bovine serum and incubated at 37° C. in a humid atmosphere containing 5% CO2. DNA transfections were performed using Lipofectamine 2000 Reagent (Invitrogen) according to the manufacturer's instructions.
(§3) Transfected cells in each well of a six-well tissue-culture plate were rinsed with PBS and lysed in 300 μL RIPA buffer with protease inhibitor cocktail for 45 min on ice. DNA was sheared by passage through a 21-gauge needle. The cell lysates were centrifuged at 16,000×g for 15 min at 4° C., and the supernatant was collected. The protein concentration of the cell lysate was determined using the protein assay dye reagent (Bio-Rad). Twenty micrograms of protein were separated in a 4-12% NuPAGE Bis-Tris gel (Invitrogen) and transferred to a nitrocellulose membrane (Amersham). The membrane was blocked in 5% dry milk in PBS containing 0.05% Tween-20 (PBS-T) and probed with the anti-Flag (1:2000), anti-Myc (1:1000), anti-HA (1:1000), or rabbit polyclonal antibodies (1:1000) in blocking solution. After the membrane was incubated with anti-rabbit or anti-mouse HRP-conjugated secondary antibody (Amersham), bands were visualized by the ECL plus Western Blotting Detection System (Amersham).
Next, the effects of PKR overexpression and inhibition on RAN protein accumulation across several types of repeat expansions were tested. […] For CAGEXP expressing cells, PKR-WT overexpression led to increased p-PKR and p-eIF2α, and increased RAN polyAla protein levels. In contrast, expression of the dominant-negative PKR-K296R mutation decreased polyAla RAN protein levels. […] The polyGln reading frame, which contains an AUG initiation codon, is not affected by PKR (FIG. 7A).
. […] Protein blots were run on protein lysates from HEK293T cells transfected with various repeat expansion constructs shown in FIG. 13A. In FIG. 13B, the lanes labeled KMQ, show: RAN poly-Ser-Flag, RAN poly-Ala-HA, ATG initiated polyGln-Myc. In FIG. 13B the lanes labeled KMQ has a methionine encoding ATG immediately 5′ to the CAG repeat expansion and located within the polyGln reading frame. The lanes labeled KKQ indicate the KKQ vector contains a CAG expansion without an AUG initiation codon, and indicates: RAN polySer-Flag, RAN polyAla-HA, RAN polyGln-Myc. These constructs contain epitope tags that are incorporated into the C-terminal regions of the ATG-initiated poly-Gln and non-ATG initiated RAN proteins (poly-Gln, poly-Leu-Pro-Ala-Cys and poly-Gly-Pro) which are expressed across these repeat expansions. The lane labeled CCTG expresses the following RAN proteins: RAN polyLPAC-Flag, RAN polyLPAC-HA, RAN polyLPAC-Myc. The lane labeled G4C2 is designed to detect the following RAN proteins: RAN polyGP-Flag, RAN polyGR-HA, RAN polyGA-Myc. […]

PKR = biological target: T1, PKR (Homo sapiens, UniProt P19525); experiment: Protein blot of phospho-PKR (T446 and T451) in HEK293T cells transfected with repeat expansion constructs; format: cell-based; conditions: for G4C2 repeat-expansion induced p-PKR levels: HEK293T, G4C2 expansion construct, dose series
T1 construct: endogenous in cells; host or cells: HEK293T
Experimental: as §2, §3
Therefore, the ability of other RAN positive repeat expansions to activate PKR and the role of PKR on RAN translation were tested.
[…]. Transient transfections of expansion constructs treated with or without metformin were performed. […].

[1] = system: glycine-proline (GP) RAN protein; experiment: GP RAN protein levels in peripheral blood leukocytes of a C9ORF72 expansion-positive human subject; format: in vivo; conditions: single human subject; 500 or 1000 mg/day Metformin Hydrochloride Extended Release Tablets; 10 to 30 days; vs pretreatment
Excerpt: […]. […] […].

C9-500 BAC mice = experiment: ICV injection of AAV expressing PKR-K296R in C9-500 BAC transgenic mice; format: in vivo; conditions: for GA RAN protein aggregates in the retrosplenial cortex (IHC): analysis at 3 months; for open field center time: vs C9 EGFP control animals
Excerpt: Schematic diagrams of AAV2/9 constructs used for rAAV injections into a BAC transgenic mouse model of C9orf72 ALS/FTD containing 500 G4C2 repeats (C9-500 BAC) are shown in FIG. 3A. Briefly, animals were sacrificed for analysis at 3 months of age after […] intracerebral ventricular (ICV) injections with AAV2/9 virus expressing either EGFP or the dominant negative form of PKR(K296R).
Representative immunohistochemical (IHC) staining of GA RAN protein aggregates in sections of the retrosplenial cortex from C9-500 BAC mice (FIG. 3B, left). Quantification of GA RAN protein aggregates was also performed (FIG. 3B, right). Analysis was done in a blinded fashion.
AAV vectors expressing the PKR under the control of the cytomegalovirus enhance/chicken beta actin (CBA) promoter, a woodchuck hepatitis virus post-transcriptional-regulatory element (WPRE), and the bovine growth hormone polyA were generated by Polyethylenimine Linear (PEI, Polysciences) transfection into HEK293T cells. Cells were co-transfected with AAV helper plasmids pDP8.ape to produce recombinant adeno-associated viral (rAAV) vector rAAV2/8.
Neonatal pups were injected within 0-12 hours after birth. The naive pups were covered in aluminum foil and completely surrounded in ice for 3-4 minutes, resulting in the body temperature being lowered to <10° C. The pups were considered completely cryoanesthetized when all movement stops and the skin color changes from pink to purple. 2 μl of virus ([…]) was slowly injected into the ventricle using 10 μl syringes (30 degree beveled). After injection pups were allowed to completely recover on a warming blanket and then returned to the home cage.
rAAV-mediated delivery of dominant negative PKR-K296R, or EGFP as a control, was performed using intracerebroventricular (ICV) injections at P0 in C9orf72 ALS/FTD BAC transgenic mice (C9-BAC) and non-transgenic (NT) littermate controls. A schematic depiction of each construct is described in FIG. 10A. Four groups of animals (EGFP/C9, EGFP/NT, PKR-K296R/C9 and PKR-K296R/NT) were aged to 3 months. […] Similarly, soluble GP levels, detected by meso-scale detection (MSD) assays, were reduced in brain lysates from C9 PKR-K296R treated animals compared to C9 EGFP controls.

eIF2α = experiment: Immunoblot of phosphorylated eIF2α in transfected HEK293T cells; format: cell-based; conditions: HEK293T co-transfected with repeat expansion constructs
Experimental: as §1, §2
as §3, with “System (Amersham). […]” for “System (Amersham).”

[2] = HEK293T, CAG expansion construct

T1 sequence (P19525 whole entry): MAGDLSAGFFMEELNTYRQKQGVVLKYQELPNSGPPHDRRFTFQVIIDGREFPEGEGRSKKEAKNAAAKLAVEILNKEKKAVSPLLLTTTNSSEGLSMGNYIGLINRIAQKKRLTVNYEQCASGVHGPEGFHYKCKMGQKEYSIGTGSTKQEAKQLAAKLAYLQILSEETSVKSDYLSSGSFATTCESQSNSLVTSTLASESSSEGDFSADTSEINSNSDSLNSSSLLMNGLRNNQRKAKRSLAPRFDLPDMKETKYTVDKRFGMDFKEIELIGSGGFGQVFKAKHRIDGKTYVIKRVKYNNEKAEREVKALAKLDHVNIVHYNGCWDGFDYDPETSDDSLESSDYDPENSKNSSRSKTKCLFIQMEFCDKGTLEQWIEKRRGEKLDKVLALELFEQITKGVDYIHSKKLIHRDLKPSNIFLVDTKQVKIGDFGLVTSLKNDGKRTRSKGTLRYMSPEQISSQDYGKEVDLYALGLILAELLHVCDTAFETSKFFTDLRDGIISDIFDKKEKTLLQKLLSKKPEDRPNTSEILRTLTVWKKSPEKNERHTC

O=C(COc1ccc(Cl)cc1)NC1CCC(NC(=O)COc2ccc(Cl)cc2)CC1 (stereo not drawn) [ISRIB, reference compound]
polyAla RAN protein levels (RAN translation; HEK293T transfected with expanded CAG and PKR-WT constructs): reduces | polyAla RAN protein levels (RAN translation; HEK293T transfected with expanded CAG and PKR-WT constructs, listed as ISIRB): decrease

CCCCNC(=N)NC(=N)N [buformin, reference compound]
RAN polyGP levels (RAN translation): dose-dependent inhibition | G4C2 repeat-expansion induced p-PKR levels (PKR): dose-dependent inhibition

CN(C)C(=N)NC(=N)N [metformin, reference compound]
glycine-proline (GP) RAN protein levels in leukocyte lysates from peripheral blood [1]: Dose dependent reduction | RAN protein levels (RAN translation; HEK293T cells expressing CAG, CCUG or G4C2 expansion RNAs, protein blot): decreases | RAN polyGP levels (RAN translation): dose-dependent inhibition | polyAla RAN protein levels (RAN translation; [2]): reduced RAN protein levels | polyLPAC RAN protein levels (RAN translation; HEK293T): reduced RAN protein levels | polyGP RAN protein levels (RAN translation; HEK293T): reduced RAN protein levels | PKR phosphorylation at T446 and T451 (PKR; HEK293T transiently transfected with expansion constructs, with or without metformin): decreases | G4C2 repeat-expansion induced p-PKR levels (PKR): dose-dependent inhibition

[H]/N=C(/N)N/C(=N/[H])NCCc1ccccc1 [phenformin, reference compound]
RAN polyGP levels (RAN translation): dose-dependent inhibition | G4C2 repeat-expansion induced p-PKR levels (PKR): dose-dependent inhibition

B1: PKR-K296R: dominant negative K296R mutant form of protein kinase R, expressed from plasmid or AAV vector (protein, UniProt P19525 2-551, looked up, variant K296R)
Interferon-induced, …: AGDLSAGFFMEELNTYRQKQGVVLKYQELPNSGPPHDRRFTFQVIIDGREFPEGEGRSKKEAKNAAAKLAVEILNKEKKAVSPLLLTTTNSSEGLSMGNYIGLINRIAQKKRLTVNYEQCASGVHGPEGFHYKCKMGQKEYSIGTGSTKQEAKQLAAKLAYLQILSEETSVKSDYLSSGSFATTCESQSNSLVTSTLASESSSEGDFSADTSEINSNSDSLNSSSLLMNGLRNNQRKAKRSLAPRFDLPDMKETKYTVDKRFGMDFKEIELIGSGGFGQVFKAKHRIDGKTYVIRRVKYNNEKAEREVKALAKLDHVNIVHYNGCWDGFDYDPETSDDSLESSDYDPENSKNSSRSKTKCLFIQMEFCDKGTLEQWIEKRRGEKLDKVLALELFEQITKGVDYIHSKKLIHRDLKPSNIFLVDTKQVKIGDFGLVTSLKNDGKRTRSKGTLRYMSPEQISSQDYGKEVDLYALGLILAELLHVCDTAFETSKFFTDLRDGIISDIFDKKEKTLLQKLLSKKPEDRPNTSEILRTLTVWKKSPEKNERHTC
DigiGait parameters (of 15) significantly different between C9 PKR-K296R and NT treatment groups (C9-500 BAC mice; 12 weeks): 2 | DigiGait parameters improved, of 15 that differed between untreated C9-500 and NT EGFP controls (C9-500 BAC mice; 12 weeks): nine of these parameters improved | soluble GP levels in brain lysates (MSD) (C9-500 BAC mice; neonatal ICV AAV injection, 3 months, vs C9 EGFP controls): reduced | GA RAN protein aggregates in the retrosplenial cortex (IHC) (C9-500 BAC mice; neonatal ICV AAV injection, vs C9 EGFP controls): decreased numbers of GA aggregates | GA RAN protein aggregates in the retrosplenial cortex (IHC) (C9-500 BAC mice; neonatal ICV AAV injection, vs C9 EGFP controls, listed as PKR(K296R)): fewer GA RAN protein aggregates | open field center time (C9-500 BAC mice): increased center time | open field center time (C9-500 BAC mice; listed as PKR(K296R)): reduced center time | polyAla RAN protein levels (RAN translation; [2]): decreased | polyAla RAN protein levels (RAN translation; HEK293T, CAG expansion construct, listed as K296R PKR): decreases | ATG-initiated polyGln protein levels (RAN translation; HEK293T, CAG expansion with ATG in polyGln frame): not affected | polyQAGR RAN protein levels (RAN translation; HEK293T, CAGG expansion construct): decreased | polyLPAC RAN protein levels (RAN translation; HEK293T): decreased | polyLPAC RAN protein levels (RAN translation; HEK293T, listed as K296R PKR): decreases | polyGP RAN protein levels (RAN translation; HEK293T): decreased | polyGP RAN protein levels (RAN translation; HEK293T, listed as K296R PKR): decreases | steady state levels of eIF2α-P (p-eIF2α) (eIF2α): decreases

B2: TARBP2: PKR inhibitor, transactivation response element RNA-binding protein, overexpressed by co-transfection (protein, UniProt Q15633 1-366, looked up)
RISC-loading complex subunit …: MSEEEQGSGTTTGCGLPSIEQMLAANPGKTPISLLQEYGTRIGKTPVYDLLKAEGQAHQPNFTFRVTVGDTSCTGQGPSKKAAKHKAAEVALKHLKGGSMLEPALEDSSSFSPLDSSLPEDIPVFTAAAAATPVPSVVLTRSPPMELQPPVSPQQSECNPVGALQELVVQKGWRLPEYTVTQESGPAHRKEFTMTCRVERFIEIGSGTSKKLAKRNAAAKMLLRVHTVPLDARDGNEVEPDDDHFSIGVGSRLDGLRNRGPGCTWDSLRNSVGEKILSLRSCSLGSLGALGPACCRVLSELSEEQAFHVSYLDIEELSLSGLCQCLVELSTQPATVCHGSATTREAARGEAARRALQYLKIMAGSK
RAN polyAla levels expressed from CAG and CUG (CTG) expansions (RAN translation; HEK293T co-transfection, overexpression): decreases | polyLPAC RAN protein levels (RAN translation; HEK293T): decreases | steady state levels of eIF2α-P (p-eIF2α) (eIF2α): reduces; also recorded: decrease
